Assay results from patent US7893032B2, “NgR variants and compositions thereof for suppressing axonal growth inhibition” (Yale University, priority 2005, dated 2011).
Where a chain is given by its changes, count along the chain named. Names and notes keep the numbering of the source.

B1: wild-type NgR: Wild-type full-length human NgR protein (protein, listed as Homo sapiens)
chain: MKRASAGGSRLLAWVLWLQAWQVAAPCPGACVCYNEPKVTTSCPQQGLQAVPVGIPAASQRIFLHGNRISHVPAASFRACRNLTILWLHSNVLARIDAAAFTGLALLEQLDLSDNAQLRSVDPATFHGLGRLHTLHLDRCGLQELGPGLFRGLAALQYLYLQDNALQALPDDTFRDLGNLTHLFLHGNRISSVPERAFRGLHSLDRLLLHQNRVAHVHPHAFRDLGRLMTLYLFANNLSALPTEALAPLRALQYLRLNDNPWVCDCRARPLWAWLQKFRGSSSEVPCSLPQRLAGRDLKRLAANDLQGCAVATGPYHPIWTGRATDEEPLGLPKCCQPDAADKASVLEPGRPASAGNALKGRVPPGDSPPGNGSGPRHINDSPFGTLPGSAEPPLTAVRPEGSEPPGFPTSGPRRRPGCSRKNRTRSHCRLGQAGSGGGGTGDSEGSGALPSLTCSLTPLGLALVLWTVLGPC
B2: NgR-R377Q: Full length human NgR R377Q mutant protein (protein)
chain: B1 chain with R377Q
modifications: Human NgR R377Q mutant
notes: Full length human NgR R377Q mutant protein

Legend:
[1] = test system: E7 chick DRG growth cones; assay: Nogo-induced growth cone collapse in E7 chick DRG neurons expressing NgR proteins; type: cell-based; conditions: for growth cone collapse in the presence of Nogo: E7 DRG cells expressing the protein from a viral vector, 100 μM Nogo-66 (FIG. 2 legend)
Procedure: (§1) FIG. 2 quantifies collapsed E7 (A) or E13 (B) chick DRG growth cones expressing the indicated proteins and exposed (dark) or not exposed (light) to 100 μM Nogo-66.
The signaling ability of the NgR mutant proteins was directly assessed by expressing the proteins in chick DRG neurons and monitoring Nogo-induced growth cone collapse. […] (FIG. 2A).

[2] = test system: E13 chick DRG growth cones; assay: Nogo-induced growth cone collapse in E13 chick DRG neurons overexpressing NgR proteins; type: cell-based; conditions: E13 DRG cells with endogenous NgR; 100 μM Nogo-66 (FIG. 2 legend)
Procedure: as §1
At E13, DRG neurons express NgR and respond to Nogo with growth cone collapse that is not altered by overexpression of wild-type NgR. (FIG. 2B). […] (FIG. 2B). Thus, NgR-R377Q is a dominant negative protein.

Molecule | growth cone collapse in the presence of Nogo [1] | effect of overexpression on extent of Nogo-induced growth cone collapse [2] | signaling ability (signal transduction) ([1]; E7 DRG cells expressing the protein, Nogo-induced growth cone collapse as readout)
B1 | exhibited growth cone collapse in the presence of Nogo | not altered | 
B2 | did not | significantly decreased | inactive in signal transduction
